The text below walks through data of patent US20040053425A1.

For the assay, the target named is human prostate-specific antigen (PSA) (human) (UniProt P07288). In words: cell-based or functional assay.
UniProt P07288, sequence (P07288 25-261 limits assumed): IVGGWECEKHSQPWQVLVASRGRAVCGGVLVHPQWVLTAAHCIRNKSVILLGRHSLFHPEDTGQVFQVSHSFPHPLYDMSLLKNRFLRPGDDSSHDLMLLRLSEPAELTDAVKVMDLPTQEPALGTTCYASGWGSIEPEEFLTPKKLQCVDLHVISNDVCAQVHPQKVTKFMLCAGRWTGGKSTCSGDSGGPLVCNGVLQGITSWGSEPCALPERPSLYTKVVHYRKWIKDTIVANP

Turning to “anti-PSA monoclonal antibody clone ER-PR8”, the decrease in PSA enzymatic activity was 46%.
